Assay results reported in a protein production outcome set (Wang et al. 2014).

Assay: label from the status in PepcDB records

Question: With “MSLGGNGREKDHASELRSIFSLKKIADAVNGYEEAKYVVFGIPFDNTSSYRRGSKYAPDSIRGAYVNLESYEYSYGIDLLASGMADLGDMEESEDVEYVIDTVESVVSAVMSDGKIPIMLGGEHSITVGAVRALPKDVDLVIVDAHSDFRSSYMGNKYNHACVTRRALDLLGEGRITSIGIRSVSREEFEDPDFRKVSFISSFDVKKNGIDKYIEEVDRKSRRVYISVDMDGIDPAYAPAVGTPEPFGLADTDVRRLIERLSYKAVGFDIVEFSPLYDNGNTSMLAAKLLQVFIASREKYYKEHIEGHHHHHH” as the sequence, how does the protein production read?
Answer: not failed

Question: With “RETLDNLSEAVAVFGSNGCAQLFNPPFARMWNLSAEALQSQPHIEAIEEWCRPLFDDDVFWQALRGAITGIDDRRHVLLKIERKDGSVLACKTMPLPDGATMLTFQDITDTENVERALRERNEALETADRIKIDFVHHVSYELRSPLTTIIGFA” as the sequence, how does the protein production read?
Answer: failed

Question: For “MSDLEVQVPTAFDPFADANAEDSGAGTKEYVHIRVQQRNGRKSLTTVQGLKKEYSYSKILKDLKKEFCCNGTVVQDSELGQVIQLQGDQRKNVSTFLVQAGLVKKDNIKIHGF”, which protein production is on record?
Answer: failed

Question: For “MPNNDSFYKKVLDNLYDGIYFVDEQRRITYWNKGAQMLTGYGEKEVIGRNCHDIFLHLDSNGNGICSDACPIEKTITDGRKRDEESFLHHKDGHLVPVCLRVAPIQDTDGQMVVAVEVTGDHSPRHALRQQLENLQRLALCDPLTTIANRRYVEMSLNSRLEEMRRYGWHFGILFLDVDHFKQINDTHGHDTGDRVLKMVAKTLVNSARSFDVVGRWGGEEFIAVLANISRRQLPRIADRFRHLVEQSSFRLDDRLLRVTVSVGATMSHLDDTVESLVQRADTLMYRSKQAGRNCVSIGFGEEMPETSATPSASP”, which protein production is on record?
Answer: failed

Question: With “ADKFTFIGFLSKKDSEQKKQLEELMPLDSTLIFYESPFRVGKTLENVRAIFGEKTKVVLARELTKKFESYYRGDITQALNFIKSNRPRGEFVLLIKKIHEA” as the sequence, how does the protein production read?
Answer: failed

Question: Which protein production does the source give for “MQGGSSGIGYGLKYQSRCISDVKADTDYTSFLTGTLSLKEENEVHLLRLSSGGSELICEGLFSHPNEIWDLASCPFDQRIFSTVFSTGESFGAAIWQIPELYGQLNSPQLERVASLDAHVGKINCVLWWPSGRCDKLISIDEQNIFLWSLDCSKKSAEVLSKDSAGMLHSLSGGAWDPHDVNAVAATGESSVQFWDLRTMKKVNSIEHAHVRGVDYNPKREHILVTAEDESGIHVWDLRKAKVPVQELPGHTHWTWAVRCNPEYDGLILSAGTDSVVNLWYASATSSDDKTSESPVESTRQRVNPLLNSYTDYEDSVYGLAWSSREPWVFASLSYDGRVIIESVKPFLPRI” here?
Answer: failed

Question: With “MKVAVLDFGKTNSKLFVFGQDGGILDERRTQPKWTHQDGFSVLDEAALHDWALGAVTEAVENHGVEGVMVSGHGCTFALVDDAALTHPILDYEQEPPAEIAARIDHRIPDFAETFSPRLPLGFNYGRHMLWVQEVDPDAFAAAKSILGYPQYWSWRLGGRPVSEVSYLGCHSHLWAPRSQDFSSLVDAEGWRGQMPAFARAGAVIGERRLGSSSRPIAIHNGVHDSNAALHAYRLEHHHHHH” as the sequence, how does the protein production read?
Answer: not failed

Question: Which protein production does the source give for “VMPLILLPAVDVVEGRAVRLVQGKAGSQTEYGSAVDAALGWQRDGAEWIHLVDLDAAFGRGSNHELLAEVVGKLDVQVELSGGIRDDESLAAALATGCARVNVGTAALENPQWCARVIGEHGDQVAVGLDVQIIDGEHRLRGRGWETDGGDLWDVLERLDSEGCSRFVVTDITKDGTLGGPNLDLLAGVADRTDAPVIASGGVSSLDDLRAIATLTHRGVEGAIVGKALYARRFTLPQALAAVRD” here?
Answer: not failed

Question: With “GSAQPRHDAQRPALAPRSDGFDIHTYHPDFVADPYPLLRLIRSRAPVCRDQASIWWISRYADVSACLRDRRFSADPARLGAAGVRQGGASWFGHQQLQPLARFYDNFMLFNDAPRHTRLRRLFAPAFGPDAVRRWEARIEVLVEELLDSLLERREPDLLRDFAEPLTIRVAAELFGFPREDTGQLLPWGRDLAAGLDLAASHGDAGQINRSAVAFSDYLQRQARGWSDGSSRPPSGAAPSILDGAAMLEAGLGLEDLVAAYAMVFMAAFETTISMVGNATLALLTHPDQLDLLRRCPELAANAVEELLRFDGAVRGGVRCTLEEVEIGGQRIPPGEKVWLSFLAANRDPEMFAAPDRLQLQRANAKQHVAFAHGPHYCLGAYLARLELQCALRGLVRRRFALASEPTDLRWRRSSVFRTLERLPIVP” as the sequence, how does the protein production read?
Answer: failed

Question: Which protein production does the source give for “MEGITSFENLPEELKREILLRMSPNSLVTCSRVSKKLASMIRTKSFKELYLSRSMRCPRVLFAANGTITPHVLFTSFQEKEKPLLSSGEQRIITSLQGEFLFSPPVRGLICLVERESARIVICNPGTTKFLALPIVEADETTRIITHLGYDEQKDVFKVLCTRTKPETPHLVLTVGSGKEPWREIVCKFPHTVIGAGVFYRGTLYYLAAFHSKSIIMTFDVRSETFMPITSPDGVDLNQGSWRLVNYSQQGGFALVNESRGFIYQSNGGDAYLETWVWNVDTRKWSMNSILIRKWKDYAQDNEDYDYRFRGTQGTYELVFAPIRVKEDGSLTVILYNTDTQAFRRSKVQMMGEGHEFRFVDTFLDHVDSTLLI” here?
Answer: failed

Question: Which protein production does the source give for “MGIFETMSQVRRLPQALAAAVATPPALAGSGTLRGLIGLDDSLGEAVTTRAEALTIPAVLRARNLLSTTVARTPLVCDGTLPPFVPVAAPPGAATMQTPFHRMLATADDLLFNGVACWALDRDESGTCIGAIHIPLDTWQIEENTVRVNGKAVDPMEVCIFVGIHGGLLTHASETFTDARNLVRAAARVAQNPAALIELRQTNNAQLSPDDVDRIINGYVAARRGRNSGVGFSSSGLEVHEHEMAKENLLIEGRNAAAVDVARAMNVPAAFIDATVGGTSLSYQNAASRMIELVTFGVEPLMSAIEARLNQPDMHADHLANPLKFDPAALLDAIPTTPTIGAQPHGENS” here?
Answer: not failed

Question: Which protein production does the source give for “MDRKKVMVRHSIASLVALGIFGGSRFLYNVIIGRKYGVETLGYTNSIISQAFFVAGFLAFFSVGLGKFTSEFLGKGEYNRIKKLTGISFTFPFLGLILIPLNFHVALLSVLRAIQLTFRSFIYGLHKGELYAYSVILAFPFFLLGFLDGPLLPYYLLLGTIGIFSLSYLVSRSLIGLPGREDTKALIGFSTWAFLGTIAGIFLLQAPYFLTEKLAGNIEAGIVSVALSTAFLLSYLPQILQSAIVPLYAYDYAKGDDKAIKELAENSTLLLSLFSSLLVFGLIFAKSFVEVLFNIKMGAELLLALIGVELYIAYNPLINLLTATKFVKKSAIFSLIGAMVSGIFWILLIPRLGAIGTLLGLTLGYAIIFALVLWESKRKFNINAKILKPTLLAIPLQLLSLKFPYTILIYLITEIKDIEKVMAFLRDIRS” here?
Answer: failed

Question: With “EHNYHPNAVAAGLRAGRTRSIGLVIPDLENTSYTRIANYLERQARQRGYQLLIACSEDQPDNEMRCIEHLLQRQVDAIIVSTSLPPEHPFYQRWANDPFPIVALDRALDREHFTSVVGADQDDAEMLAEELRKFPAETVLYLGALPELSVSFLREQGFRTAWKDDPREVHFLYANSYEREAAAQLFEKWLETHPMPQALFTTSFALLQGVMDVTLRRDGKLPSDLAIATFGDNELLDFLQCPVLAVAQRHRDVAERVLEIVLASLDEPRKPKPGLTRIKRNLYRRGVLSRS” as the sequence, how does the protein production read?
Answer: not failed

Question: For “MTIMAGCMLVLPVMDAIAKYMAVSVGMSPAQVTFYRFFFQVLCTLPLLLVVSPGALFSAKRPWMNCLRGVLHASASLMFFAAVKYMPLADVFAIYFVEPFMLTMMSALFLGDRVGWKRWTAIVVGFGGALIVIQPSFEIFGWTSLLPVACAFFYTLYLFLNRAIGDADSPLVMQTMSGIAGTLFMAAALFAGDALGDKDFAVSLPQSAFALVLLVLLGSLSGYMHLLIVRAFRLAPLSLLAPFQYFEIISATILGYALFSDFPTPSKWLGILIIVASGLFIIWRERQQPASTPPLEGQ”, which protein production is on record?
Answer: failed

Question: For “NQEPSGAVRITLSRFAYLLILKPAMAAFCQQYPGIQLEISVYDGTVNIIEERFDLGIRFGDILEGGVVARPLMKPFREGLYASSAYLAEYGVPAMPADLHHHRLIGYRFITNNRILPLILNDHGEQLTVEMPGQLISNDIDVM”, which protein production is on record?
Answer: failed

Question: For “MTFTSSFHYQALPMRVSFEVGAVTKIGEELDRLGLSRALVLCTPEQKHLADLVMDHLGDRGAGIFDQARMHVPVETADRARDRARKLGADSCVVIGGGSSIGLGKAIALEHGLPIIAIPTTYAGSEMTPIWGLTRDGRKQTGRDAKVLPQSVIYDPQLTATLPAEISAASGLNAVAHAVEALYAPDASPIISLMAEEGVRAFAESLPAVVADGNDLDARSKALYGAWLCGACLGATTMSLHHKLCHVLGGSLDLPHAQTHAIVLPHVLGYNESHAPAARAALQRALGTDGDPSTALWELEQQLQIPHSLEELGVRETQLPAVIDEVLSNPYSNPTPVTEDGLRHLLGQALRGDRPTRR”, which protein production is on record?
Answer: failed
